Tests used:
[1] = biological target: murine neonatal Fc receptor (FcRn), extracellular domain (murine | not stated) (UniProt Q61559); assay: SPR; FcRn extracellular domain immobilised on a CM5 chip (600 RU); Fc fusions injected; McIlvaine's phosphate-citrate buffer pH 6.0 with 0.05% Tween 20, 25 °C, 50 μL/min; Biacore 3000; bivalent analyte model (KD1)
[2] = biological target: mouse PRYSPRY-domain of TRIM21 (tripartite-motif containing protein 21) (mouse); assay: SPR; TRIM21 PRYSPRY-domain immobilised on a CM5 chip (200 RU); Fc fusions injected; HBS-EP pH 7.4 (0.01 M HEPES, 0.15 M NaCl, 3 mM EDTA, 0.05% Tween 20), 25 °C, 50 μL/min; Biacore 3000; bivalent analyte model (KD1)

Chain of UniProt Q61559 (Q61559 whole entry, looked up, the tested form may be a part): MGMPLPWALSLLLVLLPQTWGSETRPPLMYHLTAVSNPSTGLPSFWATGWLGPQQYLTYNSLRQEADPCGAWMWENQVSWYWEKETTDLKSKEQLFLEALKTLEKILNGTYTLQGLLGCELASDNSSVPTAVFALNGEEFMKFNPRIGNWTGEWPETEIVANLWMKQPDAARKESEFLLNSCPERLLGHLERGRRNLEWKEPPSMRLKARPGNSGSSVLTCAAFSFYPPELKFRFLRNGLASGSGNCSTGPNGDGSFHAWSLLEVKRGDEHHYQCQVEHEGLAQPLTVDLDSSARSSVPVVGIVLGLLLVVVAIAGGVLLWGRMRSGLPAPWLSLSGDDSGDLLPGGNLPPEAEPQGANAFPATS

## Fc-ARP1 fusion protein (mouse IgG1 Fc fused to the anti-rotavirus VHH ARP1) (Fc fusion)
[1]
  Kd: 760 nM
[2]
  Kd: 28 nM

Source: PMC4954977
